Measured values published in article PMC11988119.

Biological target: GnRH-AIF chimeric protein
Assay: co-IP; anti-AIF antibody (ab32516) on Protein A/G beads; nuclear fractions of Colo205 cells treated with GnRH-AIF (1 µM) or PBS for 24 h; overnight at 4 °C, washed with PBS; blots with anti-ENDOG and anti-AIFM1

fold increase of co-precipitated ENDOG, cells treated with GnRH-AIF against PBS control: 1.6 fold
B1: endonuclease G (enzyme)
chain: AELPPVPGGPRGPGELAKYGLPGLAQLKSRESYVLCYDPRTRGALWVVEQLRPERLRGDGDRRECDFREDDSVHAYHRATNADYRGSGFDRGHLAAAANHRWSQKAMDDTFYLSNVAPQVPHLNQNAWNNLEKYSRSLTRSYQNVYVCTGPLFLPRTEADGKSYVKYQVIGKNHVAVPTHFFKVLILEAAGGQIELRTYVMPNAPVDEAIPLERFLVPIESIERASGLLFVPNILARAGSLKAITAGSK
